Data published in paper PMC9482650, “Quantitative fragmentomics allow affinity mapping of interactomes” (Nature Communications, 2022).

T1: NHERF3_3, Q5T2W1
T1 sequence (Q5T2W1 238-333, limits assumed, looked up): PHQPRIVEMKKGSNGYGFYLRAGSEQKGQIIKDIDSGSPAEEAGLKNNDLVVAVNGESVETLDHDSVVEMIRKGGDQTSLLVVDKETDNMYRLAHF

T2: GRIP1_5, Q9Y3R0
T2 sequence (Q9Y3R0 568-668, limits assumed, looked up): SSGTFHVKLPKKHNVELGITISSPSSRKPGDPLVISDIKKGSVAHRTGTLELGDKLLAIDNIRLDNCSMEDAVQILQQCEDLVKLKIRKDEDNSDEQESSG

T3: DLG3_3, Q92796
T3 sequence (Q92796 374-475, limits assumed, looked up): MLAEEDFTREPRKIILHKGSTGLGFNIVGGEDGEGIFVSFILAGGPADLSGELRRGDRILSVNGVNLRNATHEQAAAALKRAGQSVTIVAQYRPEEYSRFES

T4: APBA2_1, Q99767
T4 sequence (Q99767 563-664, limits assumed, looked up): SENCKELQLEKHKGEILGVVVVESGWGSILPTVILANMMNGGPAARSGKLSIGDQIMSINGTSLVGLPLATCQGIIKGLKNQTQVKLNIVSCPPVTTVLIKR

T5: APBA2_2, Q99767
T5 sequence (Q99767 654-744, limits assumed, looked up): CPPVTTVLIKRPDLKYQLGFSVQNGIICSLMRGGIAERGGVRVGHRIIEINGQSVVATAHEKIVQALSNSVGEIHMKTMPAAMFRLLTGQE

T6: APBA1_1, Q02410
T6 sequence (Q02410 651-752, limits assumed, looked up): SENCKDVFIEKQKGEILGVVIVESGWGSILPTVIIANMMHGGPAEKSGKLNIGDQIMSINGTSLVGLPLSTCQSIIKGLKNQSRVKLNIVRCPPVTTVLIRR

T7: MPDZ_5, O75970
T7 sequence (O75970 695-796, limits assumed, looked up): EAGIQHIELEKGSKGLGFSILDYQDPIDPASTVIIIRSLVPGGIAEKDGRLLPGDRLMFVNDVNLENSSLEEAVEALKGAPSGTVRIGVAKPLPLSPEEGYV

T8: ARHGEF11, O15085
T8 sequence (O15085 42-136, limits assumed, looked up): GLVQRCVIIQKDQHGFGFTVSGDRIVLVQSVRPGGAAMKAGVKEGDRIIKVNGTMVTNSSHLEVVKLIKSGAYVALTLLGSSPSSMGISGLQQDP

T9: MPP2, Q14168
T9 sequence (Q14168 180-250, limits assumed, looked up): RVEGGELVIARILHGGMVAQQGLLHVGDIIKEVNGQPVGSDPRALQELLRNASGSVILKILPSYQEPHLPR

T10: SNTB1, Q13884
T10 sequence (Q13884 107-205, limits assumed, looked up): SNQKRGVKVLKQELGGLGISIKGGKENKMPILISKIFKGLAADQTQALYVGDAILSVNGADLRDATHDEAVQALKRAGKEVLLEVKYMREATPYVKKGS

T11: DFNB31_1, Q9P202
T11 sequence (Q9P202 135-233, limits assumed, looked up): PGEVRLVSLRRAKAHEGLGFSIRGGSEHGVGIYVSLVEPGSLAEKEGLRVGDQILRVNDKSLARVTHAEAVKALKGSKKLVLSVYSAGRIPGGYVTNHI

T12: GRIP1_2, Q9Y3R0
T12 sequence (Q9Y3R0 145-248, limits assumed, looked up): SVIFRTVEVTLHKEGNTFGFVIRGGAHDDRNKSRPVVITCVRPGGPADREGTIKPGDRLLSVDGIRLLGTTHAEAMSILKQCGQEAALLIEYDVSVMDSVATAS


Each binder was assayed against T1, NHERF3_3, Q5T2W1 (assay: holdup assay). Conditions: plain residues with an end cap or a label only (N-terminal biotin on a linker: ado-ado).
Set-up: key: below the threshold = too weak to quantify, mostly under pKd 3.1 to 4

pKd	Binder
3.8	SKSLERATQL [COMMD3, Q9UBI1]
below the threshold	LRYARPADAL [PPP1R3G, B7ZBB8]

The binders below were run against IL16_1, Q14005 (assay: holdup assay). Conditions: plain residues with an end cap or a label only (N-terminal biotin on a linker: ado-ado).
Chain of IL16_1, Q14005 (Q14005 210-306): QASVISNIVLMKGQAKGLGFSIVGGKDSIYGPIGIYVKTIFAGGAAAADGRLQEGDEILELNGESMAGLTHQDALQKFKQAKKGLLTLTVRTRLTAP
Set-up: key: below the threshold = too weak to quantify, mostly under pKd 3.1 to 4

pKd	Binder
below the threshold	SKSLERATQL [COMMD3, Q9UBI1]
below the threshold	LRYARPADAL [PPP1R3G, B7ZBB8]

What follows are binders tested against T2, GRIP1_5, Q9Y3R0 (assay: holdup assay). Conditions: plain residues with an end cap or a label only (N-terminal biotin on a linker: ado-ado).
Set-up: key: below the threshold = too weak to quantify, mostly under pKd 3.1 to 4

pKd	Binder
below the threshold	SKSLERATQL [COMMD3, Q9UBI1]
below the threshold	LRYARPADAL [PPP1R3G, B7ZBB8]

The binders below were run against T3, DLG3_3, Q92796 (assay: holdup assay). Conditions: plain residues with an end cap or a label only (N-terminal biotin on a linker: ado-ado).
Set-up: key: below the threshold = too weak to quantify, mostly under pKd 3.1 to 4

pKd	Binder
3.74	SKSLERATQL [COMMD3, Q9UBI1]
below the threshold	LRYARPADAL [PPP1R3G, B7ZBB8]

What follows are binders tested against T4, APBA2_1, Q99767 (assay: holdup assay). Conditions: plain residues with an end cap or a label only (N-terminal biotin on a linker: ado-ado).
Set-up: key: below the threshold = too weak to quantify, mostly under pKd 3.1 to 4

pKd	Binder
below the threshold	SKSLERATQL [COMMD3, Q9UBI1]
below the threshold	LRYARPADAL [PPP1R3G, B7ZBB8]

What follows are binders tested against DLG1_3, Q12959 (assay: holdup assay). Conditions: plain residues with an end cap or a label only (N-terminal biotin on a linker: ado-ado).
Chain of DLG1_3, Q12959 (Q12959 457-571): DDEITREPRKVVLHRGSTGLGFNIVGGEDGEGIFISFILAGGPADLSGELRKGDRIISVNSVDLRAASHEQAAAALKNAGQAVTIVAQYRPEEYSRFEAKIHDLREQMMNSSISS
Set-up: key: below the threshold = too weak to quantify, mostly under pKd 3.1 to 4

pKd	Binder
3.97	SKSLERATQL [COMMD3, Q9UBI1]
below the threshold	LRYARPADAL [PPP1R3G, B7ZBB8]

What follows are binders tested against T5, APBA2_2, Q99767 (assay: holdup assay). Conditions: plain residues with an end cap or a label only (N-terminal biotin on a linker: ado-ado).
Set-up: key: below the threshold = too weak to quantify, mostly under pKd 3.1 to 4

pKd	Binder
below the threshold	SKSLERATQL [COMMD3, Q9UBI1]
below the threshold	LRYARPADAL [PPP1R3G, B7ZBB8]

Each binder was assayed against LNX1_1, Q8TBB1 (assay: holdup assay). Conditions: plain residues with an end cap or a label only (N-terminal biotin on a linker: ado-ado).
Chain of LNX1_1, Q8TBB1 (Q8TBB1 261-371): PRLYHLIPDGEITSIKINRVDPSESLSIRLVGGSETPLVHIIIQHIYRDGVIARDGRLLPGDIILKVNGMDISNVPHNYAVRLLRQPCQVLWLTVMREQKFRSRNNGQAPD
Set-up: key: below the threshold = too weak to quantify, mostly under pKd 3.1 to 4

pKd	Binder
3.87	SKSLERATQL [COMMD3, Q9UBI1]
below the threshold	LRYARPADAL [PPP1R3G, B7ZBB8]

Each binder was assayed against GORASP2, Q9H8Y8 (assay: holdup assay). Conditions: plain residues with an end cap or a label only (N-terminal biotin on a linker: ado-ado).
Set-up: key: below the threshold = too weak to quantify, mostly under pKd 3.1 to 4

pKd	Binder
3.84	SKSLERATQL [COMMD3, Q9UBI1]
below the threshold	LRYARPADAL [PPP1R3G, B7ZBB8]

The binders below were run against TJP1_3, Q07157 (assay: holdup assay). Conditions: plain residues with an end cap or a label only (N-terminal biotin on a linker: ado-ado).
Chain of TJP1_3, Q07157 (Q07157 416-512): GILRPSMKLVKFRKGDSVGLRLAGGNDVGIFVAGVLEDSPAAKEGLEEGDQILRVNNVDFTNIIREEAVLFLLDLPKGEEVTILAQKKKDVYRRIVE
Set-up: key: below the threshold = too weak to quantify, mostly under pKd 3.1 to 4

pKd	Binder
3.51	SKSLERATQL [COMMD3, Q9UBI1]
below the threshold	LRYARPADAL [PPP1R3G, B7ZBB8]

The binders below were run against DLG1_2, Q12959 (assay: holdup assay). Conditions: plain residues with an end cap or a label only (N-terminal biotin on a linker: ado-ado).
Chain of DLG1_2, Q12959 (Q12959 314-412): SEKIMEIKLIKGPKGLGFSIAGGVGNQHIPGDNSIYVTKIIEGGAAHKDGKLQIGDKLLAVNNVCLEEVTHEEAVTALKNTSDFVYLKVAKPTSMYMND
Set-up: key: below the threshold = too weak to quantify, mostly under pKd 3.1 to 4

pKd	Binder
3.92	SKSLERATQL [COMMD3, Q9UBI1]
3.53	LRYARPADAL [PPP1R3G, B7ZBB8]

Each binder was assayed against T6, APBA1_1, Q02410 (assay: holdup assay). Conditions: plain residues with an end cap or a label only (N-terminal biotin on a linker: ado-ado).
Set-up: key: below the threshold = too weak to quantify, mostly under pKd 3.1 to 4

pKd	Binder
below the threshold	SKSLERATQL [COMMD3, Q9UBI1]
below the threshold	LRYARPADAL [PPP1R3G, B7ZBB8]

What follows are binders tested against CASK, O14936 (assay: holdup assay). Conditions: plain residues with an end cap or a label only (N-terminal biotin on a linker: ado-ado).
Chain of CASK, O14936 (O14936 487-570): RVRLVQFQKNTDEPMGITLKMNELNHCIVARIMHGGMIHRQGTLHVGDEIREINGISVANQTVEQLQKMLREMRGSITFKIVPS
Set-up: key: below the threshold = too weak to quantify, mostly under pKd 3.1 to 4

pKd	Binder
below the threshold	SKSLERATQL [COMMD3, Q9UBI1]
below the threshold	LRYARPADAL [PPP1R3G, B7ZBB8]

What follows are binders tested against DLG4_1, P78352 (assay: holdup assay). Conditions: plain residues with an end cap or a label only (N-terminal biotin on a linker: ado-ado).
Chain of DLG4_1, P78352 (P78352 62-152): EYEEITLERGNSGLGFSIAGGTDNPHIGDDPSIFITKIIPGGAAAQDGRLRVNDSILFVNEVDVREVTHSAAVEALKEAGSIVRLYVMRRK
Set-up: key: below the threshold = too weak to quantify, mostly under pKd 3.1 to 4

pKd	Binder
below the threshold	SKSLERATQL [COMMD3, Q9UBI1]
below the threshold	LRYARPADAL [PPP1R3G, B7ZBB8]

The binders below were run against T7, MPDZ_5, O75970 (assay: holdup assay). Conditions: plain residues with an end cap or a label only (N-terminal biotin on a linker: ado-ado).
Set-up: key: below the threshold = too weak to quantify, mostly under pKd 3.1 to 4

pKd	Binder
below the threshold	SKSLERATQL [COMMD3, Q9UBI1]
below the threshold	LRYARPADAL [PPP1R3G, B7ZBB8]

These binders were tested against T8, ARHGEF11, O15085 (assay: holdup assay). Conditions: plain residues with an end cap or a label only (N-terminal biotin on a linker: ado-ado).
Set-up: key: below the threshold = too weak to quantify, mostly under pKd 3.1 to 4

pKd	Binder
4.57	SKSLERATQL [COMMD3, Q9UBI1]
below the threshold	LRYARPADAL [PPP1R3G, B7ZBB8]

What follows are binders tested against LNX1_2, Q8TBB1 (assay: holdup assay). Conditions: plain residues with an end cap or a label only (N-terminal biotin on a linker: ado-ado).
Chain of LNX1_2, Q8TBB1 (Q8TBB1 371-470): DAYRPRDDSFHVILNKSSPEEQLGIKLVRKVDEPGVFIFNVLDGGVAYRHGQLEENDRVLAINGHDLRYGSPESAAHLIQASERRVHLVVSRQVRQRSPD
Set-up: key: below the threshold = too weak to quantify, mostly under pKd 3.1 to 4

pKd	Binder
below the threshold	SKSLERATQL [COMMD3, Q9UBI1]
below the threshold	LRYARPADAL [PPP1R3G, B7ZBB8]

These binders were tested against GOPC, Q9HD26 (assay: holdup assay). Conditions: plain residues with an end cap or a label only (N-terminal biotin on a linker: ado-ado).
Set-up: key: below the threshold = too weak to quantify, mostly under pKd 3.1 to 4

pKd	Binder
3.81	SKSLERATQL [COMMD3, Q9UBI1]
below the threshold	LRYARPADAL [PPP1R3G, B7ZBB8]

What follows are binders tested against GRID2IP_2, A4D2P6 (assay: holdup assay). Conditions: plain residues with an end cap or a label only (N-terminal biotin on a linker: ado-ado).
Chain of GRID2IP_2, A4D2P6 (A4D2P6 272-370): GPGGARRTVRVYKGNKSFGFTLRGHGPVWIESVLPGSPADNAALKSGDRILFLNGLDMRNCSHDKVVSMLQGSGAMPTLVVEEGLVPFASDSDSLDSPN
Set-up: key: below the threshold = too weak to quantify, mostly under pKd 3.1 to 4

pKd	Binder
4.69	SKSLERATQL [COMMD3, Q9UBI1]
below the threshold	LRYARPADAL [PPP1R3G, B7ZBB8]

What follows are binders tested against T9, MPP2, Q14168 (assay: holdup assay). Conditions: plain residues with an end cap or a label only (N-terminal biotin on a linker: ado-ado).
Set-up: key: below the threshold = too weak to quantify, mostly under pKd 3.1 to 4

pKd	Binder
below the threshold	SKSLERATQL [COMMD3, Q9UBI1]
below the threshold	LRYARPADAL [PPP1R3G, B7ZBB8]

The binders below were run against T10, SNTB1, Q13884 (assay: holdup assay). Conditions: plain residues with an end cap or a label only (N-terminal biotin on a linker: ado-ado).
Set-up: key: below the threshold = too weak to quantify, mostly under pKd 3.1 to 4

pKd	Binder
4.24	SKSLERATQL [COMMD3, Q9UBI1]
below the threshold	LRYARPADAL [PPP1R3G, B7ZBB8]

The binders below were run against FRMPD4, Q14CM0 (assay: holdup assay). Conditions: plain residues with an end cap or a label only (N-terminal biotin on a linker: ado-ado).
Chain of FRMPD4, Q14CM0 (Q14CM0 67-160): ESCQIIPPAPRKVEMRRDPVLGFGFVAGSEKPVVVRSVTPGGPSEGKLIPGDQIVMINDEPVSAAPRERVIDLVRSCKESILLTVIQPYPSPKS
Set-up: key: below the threshold = too weak to quantify, mostly under pKd 3.1 to 4

pKd	Binder
4.33	SKSLERATQL [COMMD3, Q9UBI1]
3.66	LRYARPADAL [PPP1R3G, B7ZBB8]

What follows are binders tested against T11, DFNB31_1, Q9P202 (assay: holdup assay). Conditions: plain residues with an end cap or a label only (N-terminal biotin on a linker: ado-ado).
Set-up: key: below the threshold = too weak to quantify, mostly under pKd 3.1 to 4

pKd	Binder
3.74	SKSLERATQL [COMMD3, Q9UBI1]
below the threshold	LRYARPADAL [PPP1R3G, B7ZBB8]

These binders were tested against NHERF4_4, Q86UT5 (assay: holdup assay). Conditions: plain residues with an end cap or a label only (N-terminal biotin on a linker: ado-ado).
Chain of NHERF4_4, Q86UT5 (Q86UT5 464-550): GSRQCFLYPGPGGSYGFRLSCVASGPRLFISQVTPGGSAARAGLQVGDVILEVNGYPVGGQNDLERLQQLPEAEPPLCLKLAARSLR
Set-up: key: below the threshold = too weak to quantify, mostly under pKd 3.1 to 4

pKd	Binder
below the threshold	SKSLERATQL [COMMD3, Q9UBI1]
below the threshold	LRYARPADAL [PPP1R3G, B7ZBB8]

Each binder was assayed against IL16_3, Q14005 (assay: holdup assay). Conditions: plain residues with an end cap or a label only (N-terminal biotin on a linker: ado-ado).
Chain of IL16_3, Q14005 (Q14005 1107-1207): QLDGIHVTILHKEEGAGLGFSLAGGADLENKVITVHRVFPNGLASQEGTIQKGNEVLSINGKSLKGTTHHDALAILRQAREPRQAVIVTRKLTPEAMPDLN
Set-up: key: below the threshold = too weak to quantify, mostly under pKd 3.1 to 4

pKd	Binder
below the threshold	SKSLERATQL [COMMD3, Q9UBI1]
below the threshold	LRYARPADAL [PPP1R3G, B7ZBB8]

Each binder was assayed against T12, GRIP1_2, Q9Y3R0 (assay: holdup assay). Conditions: plain residues with an end cap or a label only (N-terminal biotin on a linker: ado-ado).
Set-up: key: below the threshold = too weak to quantify, mostly under pKd 3.1 to 4

pKd	Binder
3.5	SKSLERATQL [COMMD3, Q9UBI1]
below the threshold	LRYARPADAL [PPP1R3G, B7ZBB8]
